# Measured values from IntAct's records for PubMed 24500646.
# B1: DDB1- and CUL4-associated factor 8 (Homo sapiens), Q5TAQ9 (parent)
# chain: MSSKGSSTDGRTDLANGSLSSSPEEMSGAEEGRETSSGIEVEASDLSLSLTGDDGGPNRTSTESRGTDTESSGEDKDSDSMEDTGHYSINDENRVHDRSEEEEEEEEEEEEEQPRRRVQRKRANRDQDSSDDERALEDWVSSETSALPRPRWQALPALRERELGSSARFVYEACGARVFVQRFRLQHGLEGHTGCVNTLHFNQRGTWLASGSDDLKVVVWDWVRRQPVLDFESGHKSNVFQAKFLPNSGDSTLAMCARDGQVRVAELSATQCCKNTKRVAQHKGASHKLALEPDSPCTFLSAGEDAVVFTIDLRQDRPASKLVVTKEKEKKVGLYTIYVNPANTHQFAVGGRDQFVRIYDQRKIDENENNGVLKKFCPHHLVNSESKANITCLVYSHDGTELLASYNDEDIYLFNSSHSDGAQYVKRYKGHRNNATVKGVNFYGPKSEFVVSGSDCGHIFLWEKSSCQIIQFMEGDKGGVVNCLEPHPHLPVLATSGLDHDVKIWAPTAEASTELTGLKDVIKKNKRERDEDSLHQTDLFDSHMLWFLMHHLRQRRHHRRWREPGVGATDADSDESPSSSDTSDEEEGPDRVQCMPS
# Variants of: B1
# Details: with ddb1_human DDB1, Q16531
# ddb1_human DDB1, Q16531, sequence (Q16531 whole entry): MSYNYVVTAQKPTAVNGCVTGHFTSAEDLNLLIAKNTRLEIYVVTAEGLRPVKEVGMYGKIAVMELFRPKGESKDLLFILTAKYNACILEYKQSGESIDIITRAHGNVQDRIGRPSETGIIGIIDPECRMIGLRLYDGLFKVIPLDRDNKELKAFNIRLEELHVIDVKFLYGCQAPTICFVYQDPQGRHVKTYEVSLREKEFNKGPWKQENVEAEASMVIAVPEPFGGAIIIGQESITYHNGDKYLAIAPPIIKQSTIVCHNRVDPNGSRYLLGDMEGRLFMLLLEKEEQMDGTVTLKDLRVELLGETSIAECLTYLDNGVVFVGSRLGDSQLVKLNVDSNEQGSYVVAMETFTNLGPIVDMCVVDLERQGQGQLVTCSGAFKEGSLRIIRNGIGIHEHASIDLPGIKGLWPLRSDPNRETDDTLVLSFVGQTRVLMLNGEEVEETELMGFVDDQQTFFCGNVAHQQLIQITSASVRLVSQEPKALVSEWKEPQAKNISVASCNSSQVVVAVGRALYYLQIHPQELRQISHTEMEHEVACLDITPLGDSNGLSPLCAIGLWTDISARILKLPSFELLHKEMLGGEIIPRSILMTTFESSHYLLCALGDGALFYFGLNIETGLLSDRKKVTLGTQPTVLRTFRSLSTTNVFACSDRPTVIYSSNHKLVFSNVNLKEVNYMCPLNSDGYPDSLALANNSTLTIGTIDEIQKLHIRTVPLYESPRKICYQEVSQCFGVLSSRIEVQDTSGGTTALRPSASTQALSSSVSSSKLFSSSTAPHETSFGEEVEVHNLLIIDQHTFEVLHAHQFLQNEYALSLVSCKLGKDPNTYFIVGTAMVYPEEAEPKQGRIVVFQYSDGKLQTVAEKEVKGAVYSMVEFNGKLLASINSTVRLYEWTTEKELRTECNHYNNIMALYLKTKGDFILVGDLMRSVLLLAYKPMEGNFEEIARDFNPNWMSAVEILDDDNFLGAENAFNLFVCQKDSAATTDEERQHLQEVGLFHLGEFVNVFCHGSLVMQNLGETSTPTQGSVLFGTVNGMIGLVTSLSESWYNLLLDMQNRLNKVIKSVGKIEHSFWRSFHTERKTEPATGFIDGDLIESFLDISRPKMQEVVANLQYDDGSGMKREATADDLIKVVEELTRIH
row,effect of a mutation on the interaction,Variant
1,decreasing interaction strength,R317C
2,decreasing interaction strength,R314H
